Bridge positions count the residues as written; N and C are the ends. Ends that are not written are not given here. * marks the point of attachment. 5FAM = O=C1OC2(c3ccc(O)cc3Oc3cc(O)ccc32)c2ccc(C(=O)*)cc21
Tests used:
[1] = target: F*PfRON2sp1 (39 aa) [2021-2059], fluorescein-labeled PfRON2sp1 peptide (Plasmodium falciparum); assay: fluorescence polarisation; anisotropy titration at 20°C; 10 nM F*PfRON2sp1 titrated with protein (0 to 10 μM); PBS pH 7.4, at least 0.1% BSA
[2] = target: F*PfRON2sp1 (39 aa) [2021-2059], fluorescein-labeled PfRON2sp1 peptide (Plasmodium falciparum); assay: fluorescence polarisation; anisotropy titration at 25°C; 10 nM F*PfRON2sp1 titrated with protein (0 to 10 μM); PBS pH 7.4, at least 0.1% BSA
[3] = target: F*PfRON2sp1 (39 aa) [2021-2059], fluorescein-labeled PfRON2sp1 peptide (Plasmodium falciparum); assay: fluorescence polarisation; anisotropy titration at 30°C; 10 nM F*PfRON2sp1 titrated with protein (0 to 10 μM); PBS pH 7.4, at least 0.1% BSA
[4] = target: F*PfRON2sp1 (39 aa) [2021-2059], fluorescein-labeled PfRON2sp1 peptide (Plasmodium falciparum); assay: fluorescence polarisation; anisotropy kinetics at 20°C; association: 10 nM labeled probe with 50, 100, 200 nM protein; dissociation: 10 nM preformed complex challenged with 2500 or 5000 nM unlabeled PfRON2sp1; global fit to a one-intermediate model; PBS pH 7.4, at least 0.1% BSA
[5] = target: F*PfRON2sp1 (39 aa) [2021-2059], fluorescein-labeled PfRON2sp1 peptide (Plasmodium falciparum); assay: fluorescence polarisation; anisotropy kinetics at 25°C; association: 10 nM labeled probe with 50, 100, 200 nM protein; dissociation: 10 nM preformed complex challenged with 2500 or 5000 nM unlabeled PfRON2sp1; global fit to a one-intermediate model; PBS pH 7.4, at least 0.1% BSA
[6] = target: F*PfRON2sp1 (39 aa) [2021-2059], fluorescein-labeled PfRON2sp1 peptide (Plasmodium falciparum); assay: fluorescence polarisation; anisotropy kinetics at 30°C; association: 10 nM labeled probe with 50, 100, 200 nM protein; dissociation: 10 nM preformed complex challenged with 2500 or 5000 nM unlabeled PfRON2sp1; global fit to a one-intermediate model; PBS pH 7.4, at least 0.1% BSA
[7] = target: ΔDII-PfAMA1 (PfAMA1 DI-DII with residues 351-387 of the DII loop replaced by 7 Gly/Ser residues) (Plasmodium falciparum) (UniProt Q7KQK5); assay: ITC; 25°C, MicroCal iTC200; cell: PfAMA1 or ΔDII-PfAMA1 (10 μM); syringe: PfRON2D3-TRX (110 μM), 17 injections of 2.2 μL; 20 mM Hepes pH 7.5, 150 mM NaCl; one binding site model
[8] = target: T1, PfAMA1 (DI-DII of Plasmodium falciparum Apical Membrane Antigen 1, 3D7, residues 104-438) (Plasmodium falciparum, UniProt Q7KQK5 104-438); assay: as above; details: both partners purified
T1 construct: codon-optimized synthetic gene; also called native PfAMA1; PfAMA1 DI-DII construct
T1 sequence: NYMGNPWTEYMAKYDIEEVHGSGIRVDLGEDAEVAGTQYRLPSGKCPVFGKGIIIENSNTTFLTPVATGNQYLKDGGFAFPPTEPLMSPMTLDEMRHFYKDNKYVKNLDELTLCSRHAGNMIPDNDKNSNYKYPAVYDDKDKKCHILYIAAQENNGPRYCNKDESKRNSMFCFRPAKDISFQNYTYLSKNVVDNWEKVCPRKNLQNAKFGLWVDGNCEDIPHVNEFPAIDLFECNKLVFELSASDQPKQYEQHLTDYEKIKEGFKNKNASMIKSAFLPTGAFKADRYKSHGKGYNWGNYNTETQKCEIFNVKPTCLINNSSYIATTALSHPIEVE

[9] = target: T1, PfAMA1 (DI-DII of Plasmodium falciparum …); assay: as above; details: both partners purified; remark: listed apart in the source
[10] = target: T1, PfAMA1 (DI-DII of Plasmodium falciparum …); assay: fluorescence polarisation; anisotropy titration at 20°C; 10 nM F*PfRON2sp1 titrated with protein (0 to 10 μM); PBS pH 7.4, at least 0.1% BSA; details: both partners purified
[11] = target: T1, PfAMA1 (DI-DII of Plasmodium falciparum …); assay: fluorescence polarisation; anisotropy titration at 25°C; 10 nM F*PfRON2sp1 titrated with protein (0 to 10 μM); PBS pH 7.4, at least 0.1% BSA; details: both partners purified
[12] = target: T1, PfAMA1 (DI-DII of Plasmodium falciparum …); assay: fluorescence polarisation; anisotropy titration at 30°C; 10 nM F*PfRON2sp1 titrated with protein (0 to 10 μM); PBS pH 7.4, at least 0.1% BSA; details: both partners purified
[13] = target: T1, PfAMA1 (DI-DII of Plasmodium falciparum …); assay: fluorescence polarisation; anisotropy kinetics at 20°C; association: 10 nM labeled probe with 50, 100, 200 nM protein; dissociation: 10 nM preformed complex challenged with 2500 or 5000 nM unlabeled PfRON2sp1; global fit to a one-intermediate model; PBS pH 7.4, at least 0.1% BSA; details: both partners purified
[14] = target: T1, PfAMA1 (DI-DII of Plasmodium falciparum …); assay: fluorescence polarisation; anisotropy kinetics at 25°C; association: 10 nM labeled probe with 50, 100, 200 nM protein; dissociation: 10 nM preformed complex challenged with 2500 or 5000 nM unlabeled PfRON2sp1; global fit to a one-intermediate model; PBS pH 7.4, at least 0.1% BSA; details: both partners purified
[15] = target: T1, PfAMA1 (DI-DII of Plasmodium falciparum …); assay: fluorescence polarisation; anisotropy kinetics at 30°C; association: 10 nM labeled probe with 50, 100, 200 nM protein; dissociation: 10 nM preformed complex challenged with 2500 or 5000 nM unlabeled PfRON2sp1; global fit to a one-intermediate model; PBS pH 7.4, at least 0.1% BSA; details: both partners purified

## ΔDII-PfAMA1 (PfAMA1 DI-DII with residues 351-387 of the DII loop replaced by 7 Gly/Ser residues) (from UniProt Q7KQK5 104-350; Q7KQK5 388-438) (domain or fragment)
[1]
  Kd: 60 nM
[2]
  Kd: 94 nM
[3]
  Kd: 125 nM
[4]
  Kd: 50 nM
  complex half-life (calculated from the one-intermediate model): 166 s
  complex half-life (experimental): 100 s
  k1 (step 1, forward: reactants to intermediate): 78900 M⁻¹ s⁻¹
  k1/k2 (association constant of step 1): 1.89e+07 M⁻¹
  k2 (step 1, reverse: intermediate to reactants): 0.00417 s⁻¹
  k3 (step 2, forward: intermediate to complex): 0.00459 s⁻¹
  k3/k4 (equilibrium constant of step 2): 0.056
  k4 (step 2, reverse: complex to intermediate): 0.0812 s⁻¹
[5]
  Kd: 80.1 nM
  complex half-life (calculated from the one-intermediate model): 69.9 s
  complex half-life (experimental): 48 s
  dH (overall, summation of the transition states from the kinetic fit): -10.6 kcal/mol
  dH of step 1 (formation of the intermediate): -16.7 kcal/mol
  k1 (step 1, forward: reactants to intermediate): 116000 M⁻¹ s⁻¹
  k1/k2 (association constant of step 1): 1.17e+07 M⁻¹
  k2 (step 1, reverse: intermediate to reactants): 0.0099 s⁻¹
  k3 (step 2, forward: intermediate to complex): 0.0074 s⁻¹
  k3/k4 (equilibrium constant of step 2): 0.067
  k4 (step 2, reverse: complex to intermediate): 0.11 s⁻¹
[6]
  Kd: 126 nM
  complex half-life (calculated from the one-intermediate model): 30 s
  complex half-life (experimental): 30 s
  k1 (step 1, forward: reactants to intermediate): 168000 M⁻¹ s⁻¹
  k1/k2 (association constant of step 1): 7.35e+06 M⁻¹
  k2 (step 1, reverse: intermediate to reactants): 0.0229 s⁻¹
  k3 (step 2, forward: intermediate to complex): 0.0117 s⁻¹
  k3/k4 (equilibrium constant of step 2): 0.08
  k4 (step 2, reverse: complex to intermediate): 0.147 s⁻¹

## PfRON2D3-TRX (thioredoxin fusion of PfRON2D3, amino acids Asp2021 to Ser2059) (domain or fragment)
[7]
  Kd: 92.6 nM
  dH: -11.8 kcal/mol

B1: PfRON2D3-TRX (thioredoxin fusion of PfRON2D3, amino acids Asp2021 to Ser2059) (domain or fragment)
chain: DITQQAKDIGAGPVASCFTTRMSPPQQICLNSVVNTALS
notes: Modified pET32a vector with N-terminal hexahistidine and thioredoxin tags and a thrombin cleavage site; the fusion was used uncleaved in ITC; also called TRX-fused peptide; not shown: thioredoxin (TRX), N-terminal, kept
[8]
  Kd: 42.9 nM
[9]
  dH: -12.1 ± 0.1 kcal/mol

B2: F*PfRON2sp1 (39 aa) [2021-2059], fluorescein-labeled PfRON2sp1 peptide (peptide)
peptide: 5FAM-DITQQAKDIGAGPVASCFTTRMSPPQQICLNSVVNTALS
modifications: disulfide 17-29
notes: Rhoptry Neck Protein 2 (RON2) of Plasmodium falciparum, residues 2021-2059; also called labeled peptide; labeled probe; source: synthetic peptide, bought: Kinexus (purity ≥ 95%)
[10]
  Kd: 31 ± 2 nM
[11]
  Kd: 43 ± 3 nM
[12]
  Kd: 61 ± 5 nM
[13]
  Kd: 32.3 ± 8 nM
[14]
  Kd: 38.2 ± 10 nM
[15]
  Kd: 43.8 ± 11 nM

Source: PMC4701444 (PLoS ONE, 2016)
